Source: US12636342B2, “TARS derived from Akkermansia muciniphila or fragment thereof, and use thereof” (KOREA RESEARCH INSTITUTE OF BIOSCIENCE AND BIOTECHNOLOGY, priority 2020, dated 2026)
“Also recorded” adds a separate entry of the source.

B1: ΔU2AmTARS: AmTARS mutant with deletion of unique region U2 (residues 290-312); construct SEQ ID NO 8 (protein)
chain: MSEHKERKTLEERQQMSDLERLRHSCAHVLATAICRLWPDAQLAGGPAVDNGFYYDVELDHRISTEDFERIEEEMKKVVKENQVFQKEVISRADAMKMAESGELGALGPRSEPSRFKIDLLNDIPEDEEISLYRNGDFTDLCAGPHVGRTGNCKAFKIMSVASAFYKGDKNRPMLQRIYGTCFPNRTQLDEHLERLEEARRRDHRKLGRELGLFCIDESVGQGLILWKPKGALIRRSLQDFITEELDKLGYSQVYTPNIGKLDLYRTSGHFPYYQESQYAPIPERDAMEYMLKPMNCPHHIKIYANDAHSYRDLPVRLAEFGTVYRWEQSGELGGMTRVRGFTQDDAHIFCTPDQLAGEIRQCLGIVKTIFGTLGMTDYRVRLSMRDPESDKYVGSPENWDKAEQALREAAEWLGADYSEEAGEAAFYGPKIDFIVRDAIGREWQLGTVQVDYNLPERFDLHYTGADNKPHRPVMVHRAPFGSMERFTGLLIEHFEGKFPTWLSPEQVRVLPISDKVTDVAAAHRTALAARGVRVTVDETPDKIGAKIRNARLDRVPYMLVLGQREAEDGTVSVRHRDKGDLGAMPFEQFADLVAREIAERHISPVI
modifications: misc_feature 1..1824 Akkermansia muciniphila TARS_del_Functional region 2
B2: ΔU1AmTARS: AmTARS mutant with deletion of unique region U1 (residues 99-113); construct SEQ ID NO 7 (protein)
chain: MSEHKERKTLEERQQMSDLERLRHSCAHVLATAICRLWPDAQLAGGPAVDNGFYYDVELDHRISTEDFERIEEEMKKVVKENQVFQKEVISRADAMKMSRFKIDLLNDIPEDEEISLYRNGDFTDLCAGPHVGRTGNCKAFKIMSVASAFYKGDKNRPMLQRIYGTCFPNRTQLDEHLERLEEARRRDHRKLGRELGLFCIDESVGQGLILWKPKGALIRRSLQDFITEELDKLGYSQVYTPNIGKLDLYRTSGHFPYYQESQYAPIPERDAMEKLSQEGASCAELFNGLATGTIEGYMLKPMNCPHHIKIYANDAHSYRDLPVRLAEFGTVYRWEQSGELGGMTRVRGFTQDDAHIFCTPDQLAGEIRQCLGIVKTIFGTLGMTDYRVRLSMRDPESDKYVGSPENWDKAEQALREAAEWLGADYSEEAGEAAFYGPKIDFIVRDAIGREWQLGTVQVDYNLPERFDLHYTGADNKPHRPVMVHRAPFGSMERFTGLLIEHFEGKFPTWLSPEQVRVLPISDKVTDVAAAHRTALAARGVRVTVDETPDKIGAKIRNARLDRVPYMLVLGQREAEDGTVSVRHRDKGDLGAMPFEQFADLVAREIAERHISPVI
modifications: misc_feature 1..1848 Akkermansia muciniphila TARS_del_Functional region 1

Tests used:
[1] = test system: BMDMs; assay: Immunoblotting of AmTARS/TLR2-induced signaling molecules in BMDMs; format: cell-based, mouse; conditions: BMDMs stimulated for 30 min, 0.5 μM
Procedure: (A and B) Analysis of key molecules that inhibit the MAPK and PI3K/AKT signaling pathways. IL-10 produced by BMDMs pre-treated with inhibitors of ERK (PD98059, […]), p38 (SB203580, […]), MSK1/2 (SB747651A, 10 μM), CREB (666-15, 1 μM), PI3K (Wortmannin, 10 μM), and AKT1/2 (AKT1/2, 10 μM) for 1 h before treatment with either PBS or AmTARS for 24 h (n=6 per group) (A). Flow cytometry analysis of M2 macrophages in BMDMs pre-treated for 1 h with the indicated kinase inhibitors, before treatment with either PBS or AmTARS for 24 h (n=3 per group) (B). (C and D) Western blot analysis of MAPK signaling molecules in lysates of BMDMs (C) or THP1 cells (D) treated for different times with 0.5 μM AmTARS. (E) Western blot analysis of lysates of BMDMs pre-treated with α-IgG (Isotype, 1 μg ml-1) or α-TLR2 (1 μg ml-1) for 1 h before treatment with PBS, AmTARS (0.5 μM), or Pam3 (0.5 μM) for 30 min. (F and G) Western blot analysis of PI3K/AKT signaling molecules in lysates of BMDMs (F) or THP1 cells (G) treated with 0.5 μM AmTARS. (H) AmTARS activates both TLR2/1- and TLR2/6-mediated signaling. Activation of AKT, ERK, and CREB was measured by western blot analysis of lysates of THP1 cells pre-treated with α-IgG, α-TLR1, α-TLR2, or α-TLR6 (1 μg ml-1) for 1 h before treatment for 30 min with PBS or AmTARS (0.5 µM). Data shown in (A and B) are representative of three independent experiments, each with similar results (mean±SEM). P-values were calculated using an unpaired two-tailed Student's t-test. Data shown in (C-H) are representative and repeated at least three times.
Subsequently, we conducted immunoblotting assays to measure the time-dependent activation of AmTARS/TLR2-induced signaling molecules in both BMDMs and THP1 cells. AmTARS rapidly activated ERK, p38, and MSK1/2 within 15 min and, subsequently, phosphorylation of CREB at Ser133 (which is essential for IL-10 production) within 30 min in BMDMs (FIG. 31C) and THP1 cells (FIG. 31D). We then compared AmTARS-triggered TLR2 signaling with typical ligand-triggered signaling using Pam3CSK4 (the synthetic canonical TLR2/1 agonist, referred to hereafter as Pam3) in BMDMs stimulated for 30 min. […] By contrast, activation of NF-κB was greater in Pam3-treated BMDMs than in AmTARS-treated BMDMs (FIG. 31E).

[2] = test system: BMDMs; assay: Global gene expression profiling (RNA sequencing) of BMDMs; format: cell-based, mouse
Procedure: (A-E) Global gene expression analysis. Total mRNA from BMDMs treated with either AmTARS (0.5 μM) or Pam3 (10 ng ml-1) for 1 or 3 h was isolated and analyzed by RNA sequencing (A). Principle components analysis (PCA) of the gene expression profiles for each sample (B). Hierarchical clustering of gene expression profiles from each sample identified cluster 3 and 4 (C). Gene set enrichment analysis (GSEA) of clusters 3 and 4 with respect to terms related to inflammation (D). […] (F) Overview of the experimental procedures for zebrafish. The yolk of Tg (NFκB:EGFP) transgenic zebrafish larvae (3 dpf) was injected with PBS or AmTARS. Injected larvae were treated at 3 and 5 dpf with 0.5% DSS for 24 h, with a washing period with fresh water for 24 h in between. Sample collection and analysis of Tg (NFκB:EGFP)-based EGFP intensity were conducted at 6 dpf. (G) Representative confocal images showing NF-κB signaling in the mid-distal intestines of PBS- or AmTARS-injected larvae with or without DSS treatment. White dashed lines denote the boundaries of the intestines (based on merged DIC bright field images). (H) Bar graph comparing the fluorescence intensity of the mid-distal intestines of PBS- or AmTARS-injected larvae treated (or not) with DSS (n=32 per PBS group and n=35 per DSS group). (I) Schematic model of the role of AmTARS in maintaining immune homeostasis via TLR2-mediated anti-inflammatory signaling pathways. Data shown in (A-C) are representative and repeated twice. Data shown in (H) are representative of three independent experiments, each similar results (mean±SEM). P-values were calculated by unpaired and two-tailed Student's t-test.
We next performed global gene expression profiling of BMDMs treated with AmTARS or Pam3 for 1 or 3 h (FIG. 32A). […] Subsets of genes showing different expression patterns between AmTARS and Pam3 were classified into six clusters by hierarchical clustering analysis (FIGS. 33A and 33B). The gene expression pattern at 3 h was particularly different for clusters 3 and 4 (FIGS. 32C, 33A, and 33B). […]

[3] = test system: mouse model of dextran sulfate sodium (DSS)-induced colitis; assay: DSS-induced colitis (inflammatory bowel disease) mouse model, intraperitoneal administration; format: in vivo; conditions: inflammatory bowel disease mouse model; for distribution of B cells in the colon: normal mice
Procedure: We evaluated the anti-inflammatory function of AmTARS in a mouse model of dextran sulfate sodium (DSS)-induced colitis. First, we assessed dose-dependent responses (i.e., changes in body weight and colon length) to intraperitoneal (i.p.) administration of AmTARS (0.05-0.4 mg/kg) once every other day for 10 days (FIG. 10A).
The disease activity score was calculated by adding up scores ranging from 0 to 4 points for each item of bloody stool, diarrhea, and weight loss, and the epithelial damage score was calculated by assigning 0 to 4 points according to the degree of colon tissue damage.
Next, to measure IgA, mouse feces were collected and diluted in PBS containing a protein inhibitor, and then a supernatant with impurities removed was obtained, and 100 μL was placed in each well of a 96-well plate to perform protein coating at 4° C. for 2 h. The plate was washed three times with a washing solution (50 mM Tris, 0.2% in PBS) and then incubated with 100 μL of blocking solution at room temperature for 1-2 h, followed by washing. HRP conjugated IgA antibody (1:30000) was added and then incubated at room temperature for 1 h, followed by washing. Thereafter, 100 μL of a substrate solution was added, followed by incubation for 30 min, and then 50 μL of a stop solution was added, followed by measurement at 405-450 nm by an ELISA reader. […]

[4] = test system: mouse bone marrow-derived macrophages (BMDMs); assay: ELISA of immune cytokine secretion in BMDMs under normal conditions; format: cell-based; conditions: normal (non-inflammatory) conditions, 24 h
Procedure: Specifically, mouse bone marrow-derived macrophages (BMDMs) as mouse-derived immune cells were extracted from the mouse thighbone and shinbone, and then cultured in DMEM containing 10% fetal bovine serum (FBS) and antibiotics. Human macrophages (THP1) as human-derived immune cells were cultured in RPMI media containing 10% FBS and antibiotics.
The cultured cells were treated with AmTARS at 0.1 μM, 0.2 μM, and 0.5 μM for 24 h to obtain cell cultures. For cell removal, the media were centrifuged at 500×g for 10 min to obtain supernatants, which were then analyzed using an ELISA set (mouse interleukin (IL)-6, mouse IL-10, mouse tumor necrosis factor (TNF)-α, human IL-6, human IL-10, human TNF-α; BD Biosciences) to investigate the secretion of mouse- and human-derived immune cytokines. […]

[5] = Aminoacylation reaction (malachite green phosphate assay); format: biochemical; conditions: L-threonine, ATP, 30 min, free Pi at 620 nm
Procedure: TARS is an […] involved in protein synthesis, and the domain and site involved in its function are well known. The constructed deletion mutants were confirmed to have deletions of parts irrelevant to the function, but the aminoacylation reaction experiment was conducted to determine whether the deletion mutants performed the intrinsic functions thereof appropriately.
Specifically, a 2× reaction solution (100 mM Tris-HCl (pH 7.5), 20 mM MgCl2, 200 mM NaCl, 200 mM KCl, 2 mM DTT, 500 μM ATP, and 5 mM L-threonine) was prepared, and 25 μL of a reaction solution, 20 μL of distilled water, and 5 μL of protein were added to make a final 50 μL volume, followed by incubation for 30 min. Thereafter, a reaction was conducted using a malachite green phosphate assay kit (Bioassay Systems) for 30 min, and the free monophosphate group (Pi) was measured at a wavelength of 620 nm.

[6] = test system: Raw 264.7 cells; assay: ELISA of immune cytokine secretion in LPS-treated Raw 264.7 cells; format: cell-based, mouse; conditions: Raw 264.7, LPS, 24 h
Procedure: Next, to determine whether the regulation of immune cytokine secretion by AmTARS in an inflammatory environment was induced by the two functional sites, the mouse-derived immune cell Raw 264.7 cells were treated with LPS to induce an immune response by the method as in Example 3, and treated with AmTARS, ΔU1AmTARS, and ΔU2AmTARS for 24 h separately to obtain cell cultures. The obtained cell cultures were analyzed for Immune cytokine secretion by way of the same method as in Example 2.

Molecule	activation of NF-κB, Pam3 versus AmTARS [1]	transcription factors associated with up-regulated genes ([2]; GSEA (Enrichr))	gene set enrichment analysis, inflammatory response-related genes ([2]; Pam3 compared with AmTARS)	amount of IgG increased by an inflammatory bowel disease [3]	distribution of B cells in the colon [3]	secretion/production of IL-10 [4]	aminoacylation reaction / enzymatic activity [5]	secretion of IL-6 [6]	secretion of IL-10 [6]	secretion of TNF-α [6]
Pam3CSK4	greater	up-regulation of inflammation-related transcription factors such as NF-κB, RELA, and TFAP2A	significant induction of inflammatory response-related genes	–	–	–	–	–	–	–
B1	–	–	–	did not show an effect of reducing the amount of IgG	reduced the efficacy of increasing B cells in the colon	abolished the IL-10 production	an aminoacylation reaction was shown; also recorded: Neither mutant protein was different from the wild-type	no effect	no effect	no effect
B2	–	–	–	did not show an effect of reducing the amount of IgG	reduced the efficacy of increasing B cells in the colon	abolished the IL-10 production	an aminoacylation reaction was shown; also recorded: Neither mutant protein was different from the wild-type	no effect	no effect	no effect
